Experiments:
Assay in all cases: biochemical
Type in all cases: biochemical
[1] = biological target: 266 human kinases (Homo sapiens, UniProt P00519, T315I); settings: Abl(T315I)(h); 100 μM
Method in brief: (§1)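 Kinase phosphorylates cationic substrate with radiolabelled ATP phosphate; substrate retained on anionic filter membrane; scintillation count; % of 100% activity control.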

[2] = biological target: 266 human kinases (Homo sapiens, UniProt Q9UIK4); settings: DAPK2(h); 100 μM
Method in brief: as §1

[3] = biological target: 266 human kinases (Homo sapiens, UniProt Q13557); settings: CaMKIIδ(h); 100 μM
266 human kinases (Homo sapiens, UniProt Q13557), sequence (Q13557 whole entry): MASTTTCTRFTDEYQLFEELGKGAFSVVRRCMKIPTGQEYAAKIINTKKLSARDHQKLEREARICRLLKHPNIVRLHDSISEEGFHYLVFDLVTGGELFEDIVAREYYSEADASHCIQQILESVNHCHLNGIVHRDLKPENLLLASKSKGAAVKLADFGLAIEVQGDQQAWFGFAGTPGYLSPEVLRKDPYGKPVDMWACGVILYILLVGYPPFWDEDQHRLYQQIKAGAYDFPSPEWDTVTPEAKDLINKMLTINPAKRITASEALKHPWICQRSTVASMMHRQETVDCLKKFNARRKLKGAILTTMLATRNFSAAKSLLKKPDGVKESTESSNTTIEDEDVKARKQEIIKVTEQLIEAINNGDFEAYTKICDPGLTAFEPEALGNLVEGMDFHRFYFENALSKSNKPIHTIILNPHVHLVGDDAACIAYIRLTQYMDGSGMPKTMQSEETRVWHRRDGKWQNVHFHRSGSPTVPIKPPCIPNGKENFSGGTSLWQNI
Method in brief: as §1

[4] = biological target: T1, 266 human kinases (Homo sapiens, UniProt P43403); settings: ZAP-70(h); 100 μM
T1 sequence (P43403 1-619): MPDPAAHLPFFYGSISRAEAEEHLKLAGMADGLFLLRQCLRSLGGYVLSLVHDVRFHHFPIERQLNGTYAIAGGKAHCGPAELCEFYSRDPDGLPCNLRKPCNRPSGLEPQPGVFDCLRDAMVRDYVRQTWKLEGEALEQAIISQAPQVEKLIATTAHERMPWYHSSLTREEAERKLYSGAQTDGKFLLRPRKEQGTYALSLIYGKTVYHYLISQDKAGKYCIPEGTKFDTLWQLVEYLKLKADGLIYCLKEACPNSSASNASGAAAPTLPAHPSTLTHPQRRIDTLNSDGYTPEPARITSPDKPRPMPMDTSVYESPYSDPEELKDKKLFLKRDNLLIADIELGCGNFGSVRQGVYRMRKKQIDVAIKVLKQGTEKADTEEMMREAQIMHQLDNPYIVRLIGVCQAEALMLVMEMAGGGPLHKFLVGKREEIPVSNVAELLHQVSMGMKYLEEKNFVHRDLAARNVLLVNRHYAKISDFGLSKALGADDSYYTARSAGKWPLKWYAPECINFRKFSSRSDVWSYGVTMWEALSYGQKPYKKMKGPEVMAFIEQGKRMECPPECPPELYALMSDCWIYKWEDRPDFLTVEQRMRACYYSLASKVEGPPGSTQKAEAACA
Method in brief: as §1

[5] = biological target: 266 human kinases (Homo sapiens, UniProt P12931, T341M); settings: Src(T341M)(h); 100 μM
Method in brief: as §1

[6] = biological target: 266 human kinases (Homo sapiens, UniProt P07333); settings: Fms(h); 100 μM
Method in brief: as §1

[7] = biological target: T2, 266 human kinases (Homo sapiens, UniProt P54760); settings: EphB4(h); 100 μM
T2 sequence (P54760 16-987): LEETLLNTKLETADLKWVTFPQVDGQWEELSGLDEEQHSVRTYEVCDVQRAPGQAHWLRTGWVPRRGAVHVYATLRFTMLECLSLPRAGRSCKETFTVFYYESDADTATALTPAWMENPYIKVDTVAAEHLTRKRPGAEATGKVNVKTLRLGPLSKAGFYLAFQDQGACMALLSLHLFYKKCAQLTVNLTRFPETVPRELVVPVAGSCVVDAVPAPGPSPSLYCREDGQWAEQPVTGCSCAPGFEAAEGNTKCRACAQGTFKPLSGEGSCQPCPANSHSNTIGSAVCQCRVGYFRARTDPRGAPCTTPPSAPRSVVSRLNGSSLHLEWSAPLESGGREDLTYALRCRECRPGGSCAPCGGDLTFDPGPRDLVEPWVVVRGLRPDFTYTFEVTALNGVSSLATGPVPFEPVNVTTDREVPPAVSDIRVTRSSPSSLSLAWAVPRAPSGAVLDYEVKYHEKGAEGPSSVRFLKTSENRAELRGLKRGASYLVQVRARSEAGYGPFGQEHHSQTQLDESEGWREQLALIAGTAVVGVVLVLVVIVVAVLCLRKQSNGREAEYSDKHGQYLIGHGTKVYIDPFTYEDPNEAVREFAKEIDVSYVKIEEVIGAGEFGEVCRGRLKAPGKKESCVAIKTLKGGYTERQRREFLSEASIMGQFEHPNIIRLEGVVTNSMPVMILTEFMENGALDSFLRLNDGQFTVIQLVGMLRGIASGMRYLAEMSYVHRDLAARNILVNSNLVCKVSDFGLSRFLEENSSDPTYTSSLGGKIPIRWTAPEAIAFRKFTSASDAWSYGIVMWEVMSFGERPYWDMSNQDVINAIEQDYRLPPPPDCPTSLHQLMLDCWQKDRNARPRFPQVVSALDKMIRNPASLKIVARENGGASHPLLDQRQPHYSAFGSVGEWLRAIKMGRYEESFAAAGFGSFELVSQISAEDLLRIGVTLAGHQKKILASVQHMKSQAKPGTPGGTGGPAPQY
Method in brief: as §1

[8] = biological target: 266 human kinases (Homo sapiens, UniProt P22607); settings: FGFR3(h); 100 μM
266 human kinases (Homo sapiens, UniProt P22607), sequence (P22607 23-806): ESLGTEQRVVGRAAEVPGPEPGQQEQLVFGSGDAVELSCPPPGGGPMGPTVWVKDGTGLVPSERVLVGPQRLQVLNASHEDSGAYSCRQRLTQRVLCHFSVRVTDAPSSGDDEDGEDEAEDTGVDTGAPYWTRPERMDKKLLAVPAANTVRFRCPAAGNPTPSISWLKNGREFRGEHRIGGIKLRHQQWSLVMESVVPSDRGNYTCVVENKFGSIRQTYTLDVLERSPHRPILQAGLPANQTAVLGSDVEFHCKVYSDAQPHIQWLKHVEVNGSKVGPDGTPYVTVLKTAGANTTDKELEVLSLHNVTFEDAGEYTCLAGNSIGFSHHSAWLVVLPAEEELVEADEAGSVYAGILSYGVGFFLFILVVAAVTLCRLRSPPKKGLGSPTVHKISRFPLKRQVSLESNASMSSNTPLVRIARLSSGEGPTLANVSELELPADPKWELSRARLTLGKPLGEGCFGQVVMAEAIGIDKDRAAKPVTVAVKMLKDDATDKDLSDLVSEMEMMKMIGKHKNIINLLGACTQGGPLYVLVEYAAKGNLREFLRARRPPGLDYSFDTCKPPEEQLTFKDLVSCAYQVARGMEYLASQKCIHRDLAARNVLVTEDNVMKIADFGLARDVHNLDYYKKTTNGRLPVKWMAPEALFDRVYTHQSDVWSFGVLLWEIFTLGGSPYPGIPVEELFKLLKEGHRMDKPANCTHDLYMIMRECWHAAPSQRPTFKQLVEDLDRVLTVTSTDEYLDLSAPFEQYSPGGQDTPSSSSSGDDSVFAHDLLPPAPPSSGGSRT
Method in brief: as §1

[9] = biological target: T3, 266 human kinases (Homo sapiens, UniProt Q08881); settings: Itk(h); 100 μM
T3 sequence (Q08881 1-620): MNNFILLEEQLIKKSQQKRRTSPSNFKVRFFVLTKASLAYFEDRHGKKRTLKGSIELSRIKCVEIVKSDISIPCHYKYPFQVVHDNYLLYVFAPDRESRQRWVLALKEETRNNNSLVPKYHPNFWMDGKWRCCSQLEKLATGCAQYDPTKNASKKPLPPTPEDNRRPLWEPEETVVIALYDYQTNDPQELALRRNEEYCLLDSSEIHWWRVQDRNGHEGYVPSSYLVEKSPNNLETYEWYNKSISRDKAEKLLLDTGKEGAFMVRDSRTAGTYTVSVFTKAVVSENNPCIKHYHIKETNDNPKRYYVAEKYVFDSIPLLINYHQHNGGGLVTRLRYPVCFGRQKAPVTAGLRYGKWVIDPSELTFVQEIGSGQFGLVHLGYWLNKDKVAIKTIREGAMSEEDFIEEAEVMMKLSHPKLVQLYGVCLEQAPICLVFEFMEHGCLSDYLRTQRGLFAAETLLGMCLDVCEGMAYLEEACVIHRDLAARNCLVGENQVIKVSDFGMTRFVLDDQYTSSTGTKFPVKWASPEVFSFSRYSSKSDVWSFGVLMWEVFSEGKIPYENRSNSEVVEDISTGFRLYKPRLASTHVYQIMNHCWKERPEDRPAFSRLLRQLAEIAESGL
Method in brief: as §1

[10] = biological target: 266 human kinases (Homo sapiens, UniProt P42684); settings: Arg(h); 100 μM
266 human kinases (Homo sapiens, UniProt P42684), sequence (P42684 whole entry): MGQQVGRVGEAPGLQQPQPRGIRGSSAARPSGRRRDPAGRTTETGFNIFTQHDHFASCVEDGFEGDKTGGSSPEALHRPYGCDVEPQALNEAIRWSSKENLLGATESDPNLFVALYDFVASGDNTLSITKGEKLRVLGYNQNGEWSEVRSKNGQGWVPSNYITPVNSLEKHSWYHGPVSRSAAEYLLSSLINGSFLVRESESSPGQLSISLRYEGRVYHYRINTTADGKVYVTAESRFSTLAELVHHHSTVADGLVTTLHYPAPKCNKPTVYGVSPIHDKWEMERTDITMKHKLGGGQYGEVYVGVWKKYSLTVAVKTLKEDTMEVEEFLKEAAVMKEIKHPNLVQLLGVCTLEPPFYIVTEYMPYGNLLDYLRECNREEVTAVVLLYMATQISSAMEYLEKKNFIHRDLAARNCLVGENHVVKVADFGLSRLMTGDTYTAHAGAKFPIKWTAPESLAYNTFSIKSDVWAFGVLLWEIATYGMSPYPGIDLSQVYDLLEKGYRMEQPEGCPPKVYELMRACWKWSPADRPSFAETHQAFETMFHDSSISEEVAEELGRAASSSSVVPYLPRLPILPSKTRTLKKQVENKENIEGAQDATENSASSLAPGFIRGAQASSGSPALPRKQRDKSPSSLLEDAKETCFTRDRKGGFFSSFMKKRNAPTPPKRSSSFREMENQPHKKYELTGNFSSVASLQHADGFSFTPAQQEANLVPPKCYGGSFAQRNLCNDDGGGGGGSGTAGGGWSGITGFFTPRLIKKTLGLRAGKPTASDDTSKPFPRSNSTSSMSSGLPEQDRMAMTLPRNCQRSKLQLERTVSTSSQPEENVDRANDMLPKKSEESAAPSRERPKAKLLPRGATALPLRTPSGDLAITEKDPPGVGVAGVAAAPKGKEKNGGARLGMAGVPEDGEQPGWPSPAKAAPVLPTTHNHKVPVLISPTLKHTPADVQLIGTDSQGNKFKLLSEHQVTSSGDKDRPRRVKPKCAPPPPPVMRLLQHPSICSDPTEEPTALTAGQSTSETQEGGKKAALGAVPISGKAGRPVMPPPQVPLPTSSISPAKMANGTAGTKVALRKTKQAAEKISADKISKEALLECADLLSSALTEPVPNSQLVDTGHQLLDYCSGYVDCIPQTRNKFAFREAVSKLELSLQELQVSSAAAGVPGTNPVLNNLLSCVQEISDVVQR
Method in brief: as §1

266 human kinases (Homo sapiens, UniProt Q9UIK4), sequence (Q9UIK4 whole entry): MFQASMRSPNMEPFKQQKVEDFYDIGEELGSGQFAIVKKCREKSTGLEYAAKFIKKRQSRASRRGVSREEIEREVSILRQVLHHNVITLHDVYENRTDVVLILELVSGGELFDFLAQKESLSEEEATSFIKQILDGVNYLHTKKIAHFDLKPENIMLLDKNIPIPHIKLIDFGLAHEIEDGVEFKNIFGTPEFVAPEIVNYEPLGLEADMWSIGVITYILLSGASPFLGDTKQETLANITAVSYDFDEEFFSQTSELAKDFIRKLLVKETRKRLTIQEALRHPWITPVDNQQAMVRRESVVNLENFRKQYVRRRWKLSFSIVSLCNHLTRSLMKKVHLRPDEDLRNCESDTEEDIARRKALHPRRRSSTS

## HRRIKAWLKKIKALARQLGVAA (mammal) [MMI-0500]
[1]
  % activity: 16%
[2]
  % activity: 3%
[3]
  % activity: 1%
[4]
  % activity: 1%
[5]
  % activity: 59%
[6]
  % activity: 14%
[7]
  % activity: 38%
[8]
  % activity: 10%
[9]
  % activity: 7%
[10]
  % activity: 22%

## YARAAARQARAKALNRQLGVA (mammal) [MMI-0200]
[1]
  % activity: 108%
[2]
  % activity: 92%
[3]
  % activity: 2%
[4]
  % activity: 58%
[5]
  % activity: 56%
[6]
  % activity: 92%
[7]
  % activity: 131%
[8]
  % activity: 208%
[9]
  % activity: 98%
[10]
  % activity: 82%

From US20140072613A1, “Compositions and Methods for Treating Cutaneous Scarring” (priority 2012, published 2014)
